Assay results as given in patent publication US10302644B2, “Compositions and methods for treating multiple myeloma” (Dana-Farber Cancer Institute, Inc., priority 2014, dated 2019).
Entries after “also recorded” stand apart in the source; their conditions may differ.

Assays:
Format in all cases: cell-based
[1] = test system: LC3-II, Bim, PARP, MDM2, XIAP, cIAP, p-p70S6K; assay: Immunoblotting/qPCR of autophagy and apoptosis proteins in MM cells; conditions: dose-dependent
Description: (§1) MM cells were harvested and lysed using RIPA-lysis buffer (Boston Bioproducts, Ashland, Mass.) containing 5 mM EDTA, 5 mM NaF, 2 mM Na3VO4, 1 mM PMSF, 5 μg/ml leupeptin, and 5 μg/ml aprotinin. Nuclear proteins were extracted using “Nuclear Extraction Kit” (Affimetrix). After the determination of protein concentration using DC protein assay (Bio-Rad, Hercules, Calif.), β-mercaptoethanol (-ME) was added to the whole-cell lysates to a 2% final concentration. The whole cell lysates or nuclear extracts were subjected to SDS-PAGE, transferred to nitrocellulose membranes (Bio-Rad, Hercules, Calif.) or polyvinylidene fluoride membranes (Millipore, Billerica, Mass.), and immunoblotted with indicated Abs. Silver staining was carried out using “SilverQuest Staining Kit®” (Invitrogen), according to manufacturer's protocol.
(§2) RNA was extracted using Trizol (Invitrogen) and quantified by a Nanodrop spectrophotometer (Labtech). Specifically, 5×10^6 cells were pelleted, washed with cold PBS, and resuspended in 1 mL Trizol. They were then incubated with 1-Bromo-3-chloropropane (Sigma), washed first with Isopropyl alcohol and then with 75% Ethanol, and resuspended in Nuclease Free-water (Invitrogen). After quantification, 2000 ng of RNA was used to synthesize cDNA via the Superscript II First strand synthesis Kit (Invitrogen), according to the manufacturer's instructions. To evaluate the expression levels of TP53RK, BCL2L11, MYC, Bim, E2F1, TP53, IKZF1, IKZF3, RRM1, p18CDKN2C, PSMB5, PSMB7, PSMA3 and GAPDH, quantitative real time PCR (QRT-PCR) was performed using SYBR GREEN PCR Master Mix (Applied Biosystem), after optimization of the primer conditions. cDNAs were diluted 1:100 or 1:1000 and amplified in a 20 μL reaction. Primers were used at 200 nM or 400 nM concentration. Thermal cycling conditions were: 10 minutes at 95° C., 40 cycles at 95° C. for 15 seconds, followed by 1 minute at 60° C. Real-time quantitative PCR was performed on ABI Prism 7300 Sequence Detection System (Applied Biosystems). Data were analyzed using the delta delta Ct method. GAPDH was used as an invariant control.

[2] = test system: MM cells; assay: Growth inhibition assay (MTT) / viable cell count (Trypan-blue)
Description: Cell growth was assessed by measuring 3-(4,5-dimethylthiazol-2-yl)-2,5-diphenyl […] bromide (MTT, Chemicon International, Temecula, Calif.) dye absorbance. Cells were pulsed with 10 μl of 5 mg/ml MTT to each well for the last 4 h of 48 h and/or 72 h cultures, followed by 100 μl isopropanol containing 0.04N HCl. Absorbance was measured at 570/630 nm using a spectrophotometer (Molecular Devices Corp., Sunnyvale Calif.).

[3] = test system: IL-2 production; assay: Co-stimulation of IL-2 production
[4] = test system: B cell; assay: B cell growth inhibition
[5] = test system: TP53RK, CRBN; assay: TP53RK and CRBN expression in MM cells (immunoblotting, qPCR)
Description: as §1, §2
pLKO.1-based shRNA vectors were obtained from the RNAi Consortium (Broad Institute). […] After 24 h of infection, cells expressing shRNA were selected with puromycin dihydrochloride (Sigma-Aldrich) at 1-2 μg/ml for 48 h, and then examined for proliferation and/or subjected to immunoblotting analysis. For siRNA transfection, scrambled, TP53RK, CRBN, p53, c-Myc and RRM1 siRNAs were purchased from Thermo Scientific (Lafayette, Colo.). siRNA transfection was carried out by Amaxa electroporation system using “Cell Line Nucleofector® Kit V or C” solution (Lonza, Koln, Germany).

[6] = test system: proteasome; assay: Proteasome pathway (GSEA, qPCR) and chymotrypsin-like proteasome activity assay; conditions: H929 cells
Description: as §2
Expression data for plasma cells from healthy donors, monoclonal gammopathy of undetermined significance (MGUS), and smoldering myeloma (SMM) were derived from GSE5900 dataset, while expression data from normal plasma cells and 65 MM patients were obtained from GSE4452 dataset, using expression profiling on Affymetrix GeneChip (t test, unpaired, equal variance). […] Data were then normalized and analyzed using D-chip software, seeking statistically significant differences among groups or in p53-target gene expression. Statistical significance was determined by Student t test. The minimal level of significance was P<0.05. […] Gene set enrichment analysis (GSEA) was performed as previously described (2) (GSEA v2.0 at http://www.broad.mit.edu/gsea) using gene set as permutation type, as well as 1,000 permutations and signal to noise as metrics for ranking genes.
Proteasome activity was measured by using Proteasome-Glo™ chymotrypsin-like cell-based assay (Promega, Madison, Wis.) according to manufacturer's protocol.

[7] = test system: hTERT; assay: hTERT expression and telomerase activity (TeloTAGGG Telomerase PCR ELISA); conditions: MM.1S cells and H929 cells
Description: as §1
Telomerase activity in MM.1S and H929 cells was assessed by “TeloTAGGG Telomerase PCR ELISA®” from Roche Applied Science (Mannheim, Germany).

[8] = test system: RRM1, p18CDKN2C; assay: RRM1 and p18CDKN2C expression (RT-qPCR, Western blot); conditions: H929 cells
Description: as §1, §2

[9] = test system: c-Myc, IKZF1/3; assay: c-Myc and IKZF1/3 expression (immunoblotting, qPCR); conditions: MM.1S cells and H929 cells
Description: MM cells were harvested and lysed using RIPA-lysis buffer (Boston Bioproducts, Ashland, Mass.) containing 5 mM EDTA, 5 mM NaF, 2 mM Na3VO4, 1 mM PMSF, 5 μg/ml leupeptin, and 5 μg/ml aprotinin. Nuclear proteins were extracted using “Nuclear Extraction Kit” (Affimetrix). After the determination of protein concentration using DC protein assay (Bio-Rad, Hercules, Calif.), β-mercaptoethanol (-ME) was added to the whole-cell lysates to a 2% final concentration. […]
RNA was extracted using Trizol (Invitrogen) and quantified by a Nanodrop spectrophotometer (Labtech). […] After quantification, 2000 ng of RNA was used to synthesize cDNA via the Superscript II First strand synthesis Kit (Invitrogen), according to the manufacturer's instructions. To evaluate the expression levels of TP53RK, BCL2L11, MYC, Bim, E2F1, TP53, IKZF1, IKZF3, RRM1, p18CDKN2C, PSMB5, PSMB7, PSMA3 and GAPDH, quantitative real time PCR (QRT-PCR) was performed using SYBR GREEN PCR Master Mix (Applied Biosystem), after optimization of the primer conditions. cDNAs were diluted 1:100 or 1:1000 and amplified in a 20 μL reaction. […] Real-time quantitative PCR was performed on ABI Prism 7300 Sequence Detection System (Applied Biosystems). Data were analyzed using the delta delta Ct method. […]

CCOc1ccc(C(Nc2ccccn2)c2ccc3ccc(C)nc3c2O)cc1C (stereo not drawn) [HLM006474]
IMiDs-induced Bim upregulation [1]: blocked

CC(C)C[C@H](NC(=O)[C@H](Cc1ccccc1)NC(=O)c1cnccn1)B(O)O [bortezomib]
cytotoxicity induced by bortezomib after TP53RK knockdown ([2]; H929 cells, TP53RK siRNA then BTZ 3 nM 24 h, MTT): further enhanced

CC1(N2C(=O)c3cccc(N)c3C2=O)CCC(=O)NC1=O (stereo not drawn) [3′-methyl derivative]
activity in co-stimulation of IL-2 production relative to pomalidomide [3]: similar
activity in B cell growth inhibition relative to pomalidomide [4]: similar

B1: CRBN siRNA: SMARTpool of J-021086-9 to -12 siRNAs against CRBN (nucleic acid)
guide 1: CAAUUAGAAUCCCUCAAUA
guide 2: GUAUAAGGCUUGCAACUUG
guide 3: GACAUUACCUCUUCAGCUU
guide 4: CGACUUCGCUGUGAAUUAG
modifications: SMARTpool mixture, further chemistry not given here
notes: SMARTpool of J-021086-9 to -12 siRNAs against CRBN
TP53RK expression after CRBN knockdown ([5]; H929 cells): did not change
chymotrypsin-like proteasome activity [6]: not

B2: TP53RK siRNA: SMARTpool of J-003108-09, -10, -11, -12 siRNAs against TP53RK (Table 4) (nucleic acid)
guide 1: GGUAGAAGAAUGUGUAUGA
guide 2: GCUUCCAACUGCUUAUAUA
guide 3: GCUGAACAUUGUGCUCAUA
guide 4: GUACCCAUCCCAACACUGA
modifications: SMARTpool mixture, further chemistry not given here
CRBN expression after TP53RK knock-down ([5]; H929 cells (also MM.1S)): did not modulate; also recorded: not altered
TP53RK mRNA levels ([5]; MM.1S and H929 cells): markedly decreased
hTERT expression [7]: downregulated
RRM1 expression [8]: downregulation
p18CDKN2C expression [8]: upregulation
IKZF1/3 expression after TP53RK knockdown [9]: markedly downregulated
MM cell growth, viable cells by Trypan-blue ([2]; H929 cells, siRNA knockdown): triggered MM cell growth inhibition
cell growth after knock-down ([2]; MM.1S and H929 cells): growth inhibition
PSMB5 PSMB7 and PSMA3 mRNA [6]: downregulation
chymotrypsin-like proteasome activity [6]: significantly inhibited
poly-ubiquitinated proteins [6]: accumulation
proteasome pathway (GSEA) [6]: downregulated
